Experiments:
[1] = tested on: cortex of the fetal brain; test: Cortical development: SATB2/TBR1/CTIP2 immunohistochemistry of fetal and adult offspring brain; assay type: in vivo, mouse
Description: Immunohistochemistry. Animals were transcardially perfused with 4% paraformaldehyde in PBS under Ketamine/xylazine anesthesia. The brains were removed and sectioned at 100-μm thickness with a Leica VT1000S vibratome (Leica, USA). Slices were permeabilized with blocking solution containing 0.4% Triton X-100, 2% goat serum, and 1% BSA in PBS for 1 hr at room temperature, and then incubated with anti-TBR1 (ab31940, Abcam), anti-SATB2 (ab51502, Abcam) and anti-CTIP2 (ab18465, Abcam) antibodies overnight at 4° C. The following day, slices were incubated with fluorescently conjugated secondary antibodies (Invitrogen, USA) for 1 h at room temperature, and mounted in vectashield mounting medium with DAPI (Vector laboratories). Images of stained brain slices were acquired using a confocal microscope (LSM710; Carl Zeiss) with a 20× objective lens; all image settings were kept constant.
Intraventricular cytokine injection At E14.5, uterine horns of pregnant mice were exposed by a caudal ventral midline incision (<2 cm). Each uterine horn was exteriorized carefully and each fetus was identified. Recombinant mouse IL-17a cytokine (R&D, 0.6 μL of 2 ng/μL), IL-6 (R&D, 0.6 μL of 10 ng/μL) or saline together with the dye Fast Green (Sigma, 0.3 mg/mL) was injected (3-4 μL) into the third ventricle of each embryo by a pulled micropipette. After injection of all embryos, the uterus was replaced within the abdomen and the cavity was lavaged with warm sterile saline.
Immunohistochemistry Fetal brains of male embryos were dissected and fixed with 4% paraformaldehyde in PBS for 6 h at 4° C. Adult brains of male offspring were perfused and fixed with 4% paraformaldehyde in PBS for overnight at 4° C. The brains were removed and sectioned at 50-μm thickness with a Leica VT1000S vibratome (Leica, USA). Slices were permeabilized with blocking solution containing 0.4% Triton X-100, 2% goat serum, and 1% BSA in PBS for 1 h at room temperature, and then incubated with anti-TBR1 (ab31940, Abcam), anti-SATB2 (ab51502, Abcam), and anti-CTIP2 (ab18465, Abcam) antibodies overnight at 4° C. The following day, slices were incubated with fluorescently conjugated secondary antibodies (Invitrogen, USA) for 1 h at room temperature, and mounted in vectashield mounting medium with DAPI (Vector laboratories). Images of stained brain slices were acquired using a confocal microscope (LSM710; Carl Zeiss) with a 20× objective lens; all image settings were kept constant. Spatial locations of the patches were registered based on their distance from the midline of the brain. These cortical malformations were quantified using cropped images containing the malformations, or the corresponding region in WT brains. The region of interest (300×300 μm^2) was divided into 10 equal laminar blocks representing different depths of the cortical plate. SATB2-, TBR1-, or […] cells were counted using Image J software. Signal intensity in each image was normalized relative to the total signal intensity.

[2] = tested on: offspring of pregnant mice (MIA mouse model); test: Ultrasonic vocalization (USV) assay in pups, MIA mouse model; assay type: in vivo
Description: Maternal Immune Activation. Mice were mated overnight and females were checked daily for the presence of seminal plugs, noted as embryonic day 0.5 (E0.5). On E12.5, pregnant female mice were weighed and injected with a single dose (20 mg/kg; i.p.) of poly(I:C) (Sigma Aldrich) or PBS vehicle. Each dam was returned to its cage and left undisturbed until the birth of its litter. All pups remained with the mother until weaning on postnatal day 21 (P21), at which time mice were group housed at maximum 5 per cage with same-sex littermates. For the IL-17 cytokine blockade experiment, monoclonal IL-17a blocking antibody (clone 50104; R&D) or isotype control antibody (IgG2a, clone 54447; R&D) was administered 6 h before maternal immune activation (FIG. 2) via i.p. route (500 μg/animal) or 2 days after maternal immune activation (FIG. 5) via i.p. route (500 μg/animal).
Ultrasonic vocalizations. On postnatal day 9, mice were removed from the nest and placed in a 15-cm diameter dish in a sound-attenuated chamber. Mouse ultrasonic vocalizations (USVs) were detected for 3 min using an UltraSoundGateCM16/CMPA microphone (AviSoft) in the chamber under stable temperature and light control, and recorded with SAS Prolab software (AviSoft). For certain USV tests, Ultravox software (Noldus information Technology, USA) was used. An amplitude filter was used to eliminate extraneous peripheral noise (i.e. HVAC). Due to the unreliability of automated USV scoring, all pup USVs were measured and confirmed manually by observers blind to the experimental conditions.
Maternal Immune Activation Mice were mated overnight and females were checked daily for the presence of seminal plugs, noted as embryonic day 0.5 (E0.5). On E12.5, pregnant female mice were weighed and injected with a single dose (20 mg/kg; i.p.) of poly(I:C) (Sigma Aldrich) or PBS vehicle. Each dam was returned to its cage and left undisturbed until the birth of its litter. All pups remained with the mother until weaning on postnatal day 21 (P21), at which time mice were group housed at maximum 5 per cage with same-sex littermates. For the IL-17 cytokine blockade experiment, monoclonal IL-17a blocking antibody (clone 50104; R&D) or isotype control antibody (IgG2a, clone 54447; R&D) were administered 6 h before maternal immune activation via i.p. route (500 μg/animal). For IL-6 cytokine injection into pregnant dams, carrier-free recombinant mouse IL-6 (R&D) was administered as a single dose (10 μg/animal; i.p.). For testing anti-IL17a therapeutic effects, IL-17a blocking antibody or isotype control antibody (as described above) was administered 2 days after maternal immune activation (500 μg/animal; i.p.).
Ultrasonic vocalizations On postnatal day 7-9, both male and female mice were removed from the nest and habituated to the testing room for 15 minutes (separate of dam). After the habituation period, mouse pups were placed in a clean 15 cm glass pyrex high wall dish. Mouse pup ultrasonic vocalizations (USVs) were then detected for 3 min using an UltraSoundGateCM16/CMPA microphone (AviSoft) in the sound attenuation chamber under stable temperature and light control (15 lux), and recorded with SAS Prolab software (AviSoft). USVs were measured between 33-125 kHz. USVs were scored as contiguous if gaps between vocalizations were <0.02 msec. For certain USV tests, Ultravox software (Noldus information Technology, USA) was used. An amplitude filter was used to eliminate extraneous peripheral noise (i.e. HVAC). Due to the unreliability of automated USV scoring, all pup USVs were measured and confirmed manually by observers blind to the experimental conditions.
Intraventricular cytokine injection At E14.5, uterine horns of pregnant mice were exposed by a caudal ventral midline incision (<2 cm). Each uterine horn was exteriorized carefully and each fetus was identified. […]

[3] = injection into pregnant WT mothers (10 μg/animal; i.p.)

poly(I:C)
cortical thickness of the fetal brains at E18.5 ([1]; MIA (poly(I:C))): did not affect cortical thickness
cortical cytoarchitecture at E18.5 ([1]; MIA (poly(I:C)) vs PBS): patch of disorganized cortical cytoarchitecture
SATB2 and SATB2/TBR1 expression in fetal brain cortical plates at E14.5 and E18.5 ([1]; MIA (poly(I:C)) vs control): abnormal expression
SATB2 expression at E14.5 ([1]; MIA (poly(I:C)) vs control): delayed expression of SATB2
abnormal expression of SATB2, TBR1 and CTIP2 in adult offspring ([1]; MIA adult offspring (P60)): maintained
number of pup USV calls ([2]; poly(I:C)-injected mothers pretreated with control antibody, vs PBS-injected mothers): emitted more USV calls

B1: recombinant IL-6: carrier-free recombinant mouse IL-6 (R&D) (protein, UniProt P08505 25-211, looked up)
Interleukin-6: FPTSQVRRGDFTEDTTPNRPVYTTSQVGGLITHVLWEIVEMRKELCNGNSDCMNNDDALAENNLKLPEIQRNDGCYQTGYNQEICLLKISSGLLEYHSYLEYMKNNLKDNKKDKARVLQRDTETLIHIFNQEVKDLHKIVLPTPISNALLTDKLESQKEWLRTKTIQFILKSLEEFLKVTLRSTRQT
cortical phenotype in offspring [1, 3]: sufficient to produce MIA-associated behavioral (enhanced USV) and cortical phenotypes
USV phenotype ([2]; injection into WT fetal brains at E14.5): nor enhanced USV phenotypes were observed
USV phenotype in offspring [2, 3]: enhanced USV

B2: recombinant IL-17a protein: Recombinant mouse IL-17a cytokine (R&D), injected into the fetal brain ventricle (protein, UniProt Q62386 26-158, looked up)
Interleukin-17A: AAIIPQSSACPNTEAKDFLQNVKVNLKVFNSLGAKVSSRRPSDYLNRSTSPWTLHRNEDPDRYPSVIWEAQCRHQRCVNAEGKLDHHMNSVLIQQEILVLKREPESCPFTFRVEKMLVGVGCTCVASIVRQAA
cortical organization (SATB2, TBR1) at E18.5 ([1]; injected into the ventricles of the fetal brain at E14.5 in the absence of MIA): appearance of disorganized cortical patches
thickness of the cortical plate at E18.5 ([1]; intra-ventricular injection at E14.5): thinned cortical plates at the medial but not lateral part of the brain
pup USVs ([2]; injection into brains of fetuses from poly(I:C)-injected IL-6 KO mothers, vs PBS-injected controls): increased pup USVs
USV phenotype ([2]; injection into the ventricles of IL-17Ra KO fetuses): nor enhanced USV phenotypes were observed
USV phenotype ([2]; intra-ventricular injection at E14.5, compared with sham injection): enhanced USV phenotype
